Data published in patent US20230348603A1 (VERSEAU THERAPEUTICS, published 2023).

Experiments:
Human VSIG4-L-Fc [1] = target: T1, Human VSIG4-L-Fc (human); assay: BLI cross-blocking on hVSIG4-L-Fc, competitor 16G02 first
T1 construct: also called hVSIG4-L-Fc; hVSIG4-L

Human VSIG4-L-Fc [2] = target: T1, Human VSIG4-L-Fc; assay: ligand competition ELISA (FJB), blocked ligand iC3b
Human VSIG4-L-Fc [3] = target: T1, Human VSIG4-L-Fc; assay: BLI binning on hVSIG4-L-Fc, competitor 16E10 first;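 note: normalized to binding of second antibody without first competitor antibody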
Human VSIG4-L-Fc [4] = target: T1, Human VSIG4-L-Fc; assay: BLI binning on hVSIG4-L-Fc, competitor 15C04 first;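 note: normalized to binding of second antibody without first competitor antibody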
Human VSIG4-L-Fc [5] = target: T1, Human VSIG4-L-Fc; assay: BLI binning on hVSIG4-L-Fc, competitor 14D12 first;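 note: normalized to binding of second antibody without first competitor antibody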
Human VSIG4-L-Fc [6] = target: T1, Human VSIG4-L-Fc; assay: BLI binning on hVSIG4-L-Fc, competitor 14C05 first;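 note: normalized to binding of second antibody without first competitor antibody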
Human VSIG4-L-Fc [7] = target: T1, Human VSIG4-L-Fc; assay: BLI binning on hVSIG4-L-Fc, competitor 15C03 first;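 note: normalized to binding of second antibody without first competitor antibody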
Human VSIG4-L-Fc [8] = target: T1, Human VSIG4-L-Fc; assay: BLI binning on hVSIG4-L-Fc, competitor 15A06 first;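 note: normalized to binding of second antibody without first competitor antibody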
[9] = target: T2, Human VSIG4-L-CHO (human VSIG4 long isoform on CHO-K1 cells) (human, UniProt Q9Y279 20-399); assay: flow cytometry, CHO-K1 cells expressing hVSIG4-L
T2 construct: also called hVSIG4-L (flow cytometry)
T2 sequence: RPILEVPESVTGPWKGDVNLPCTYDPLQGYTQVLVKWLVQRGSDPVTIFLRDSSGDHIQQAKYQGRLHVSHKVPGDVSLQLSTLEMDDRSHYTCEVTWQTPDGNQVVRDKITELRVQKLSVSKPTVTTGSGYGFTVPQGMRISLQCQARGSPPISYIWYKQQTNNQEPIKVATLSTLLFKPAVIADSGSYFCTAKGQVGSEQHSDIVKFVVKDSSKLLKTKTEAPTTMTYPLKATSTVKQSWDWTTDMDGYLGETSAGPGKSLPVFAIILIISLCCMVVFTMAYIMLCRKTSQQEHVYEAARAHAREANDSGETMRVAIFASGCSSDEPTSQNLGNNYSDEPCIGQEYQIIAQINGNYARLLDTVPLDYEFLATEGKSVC

[10] = target: T2, Human VSIG4-L-CHO (human VSIG4 long …); assay: flow cytometry (FJB), 200 nM mAb, huVSIG4-L CHO-K1 cells

binding signal (nm shift) (Human VSIG4-L-Fc [1]): 0.16 nm
IC50 (Human VSIG4-L-Fc [2]): 0.5 nM
normalized maximum binding nm shift (Human VSIG4-L-Fc [3]): 0.62 normalized
normalized maximum binding nm shift (Human VSIG4-L-Fc [4]): 0.76 normalized
normalized maximum binding nm shift (Human VSIG4-L-Fc [5]): 0.7 normalized
normalized maximum binding nm shift (Human VSIG4-L-Fc [6]): 0.72 normalized
normalized maximum binding nm shift (Human VSIG4-L-Fc [7]): 0.65 normalized
normalized maximum binding nm shift (Human VSIG4-L-Fc [8]): 0.77 normalized
EC50 [9]: 4.4 nM
Binding (200 nM) MFI [10]: 106000 MFI
B1: 12A12 mouse/human chimeric IgG4 (S228P) kappa (antibody, V domains shown)
VH: QVQMKQSGAELAKPGASVKMSCKASGYTFTNYWMHWVKQRPGQGLEWIGYINPSTGYTDYNQNFKDRATLTADKSSSTAYMQLSSLTSEDSAVYYCIRGSDYYGRDYWGQGTTLTVSS
VL: DIQMTQTTSSLSASLGDRVTISCRASQDISNYLNWYQQKPDGTLKLLIYYTSRLHSGVPSRFSGSGSGTDYSLTISNLEQEDIATYFCRQGNTLPWTFGGGTKLEIKR
